Measurements: patent US20110171233A1 (RIBOVAX BIOTECHNOLOGIES S A, published 2011)

Key:
[1] = molecular target: T1, recombinant autologous interstrain fusion antigen CG3 (hCMV strain AD169; hCMV strain Towne, UniProt P06473 27-84; P13201 27-84); assay: ELISA of the subculture supernatant on the gB recombinant antigen (CG3)
T1 construct: domain: gB Antigenic Domain 2 (AD2); Antigen of the commercial gB(AD2) ELISA (Biotest, Cat. No. 807035; Rothe M et al., 2001); also called CG3 antigen; gB(AD2)

[2] = molecular target: hCMV envelope glycoprotein B (gB) of hCMV strain VR1814 (hCMV strain VR1814); assay: cell-based or functional assay
[3] = molecular target: hCMV envelope glycoprotein B (gB) of hCMV strain AD169 (hCMV strain AD169, UniProt P06473 32-906); assay: cell-based or functional assay

Binder	binding result [1]	hCMV neutralizing activity, dose-response, HUVEC cells with hCMV strain VR1814 (1,000 PFU/reaction), IC50 [2] [µg/mL]	hCMV neutralizing activity, dose-response, HELF cells with hCMV strain AD169 (1,000 PFU/reaction), IC50 [3] [µg/mL]
37B7 antibody (antibody, V domains shown, also called antibody secreted by the 37B7 subculture) VH: QVQLVQSGGEVKKPGASVKVSCKASGYTFTSSGINWVRQAPGQGLEWMGWINTYNGNTKYAQRLQGRVTMTTDTSTDTAYMELRSLRSDDTAVYYCARDGLNWGWGDYWGQGTLVTVSS VL: TQSPSTLSASVGDRVIITCRASQSISSWLAWYQQKPGKAPKLLIYKASSLESGVPSRFSGSGSGTEFTLTISSLQPDDFASYYCQQCKGYPYTFGQGTKLEIKR	no binding	–	–
8C10 antibody (antibody, V domains shown) VH: EVQLVQSGAEVKKPGESLKISCKGSGYTFANYWIAWVRQMPGKGLEWMGIIYPGDSDTRYSPSFQGQVTISADKSFHTVYLQWSSLKASDTAIYFCASTSYYDFWSGYHRGREHYYYGMEVWGQGTTVIVSS VL: TQSPATLSLSPGERVTLSCRASQSVYNYLAWYQQKPGQAPRLLIYDASNRATGIPARFSGSGSGTDFTLTISSLEPEDFAVYYCQLRRGTFGQGTKVEIKR	–	0.67	0.82
